Patent US20040162413A1 (published 2004)
Changes are numbered by the printed parent chain. Names and notes keep the numbering of the source.

B1: Y49K, derivative of clone CW43 made by site-directed mutagenesis (anti-CD40 Fab) (Fab, V domains shown)
VH: QVQLVQSGPELKKPGASVKVSCKASGYAFTTTGMQWVRQAPGQGLEWMGWINTHSGVPKYVEDFKGRFVFSLDTSVSTAYLQISSLKAEDTAVYFCARSGNGNYDLAYFRYWGQGTLVTVSS
VL: EIVLTQSPATLSLSPGERATLSCRASQSISDYLHWYQQKPGQAPRLLIKYASHSISGIPARFSGSGSGTDFTLTISSLEPEDFAVYYCQHGHSFPRTFGGGTKVEIK
notes: Fab, human constant regions; framework identical to clone 1H11; also called clone Y49K
B2: chimeric anti-CD40 Fab (variable regions of murine mAb 40.2.220) (Fab, V domains shown)
VH: QIQLVQSGPELKKPGETVRISCKASGYAFTTTGMQWVQEMPGKGLKWIGWINTHSGVPKYVEDFKGRFAFSLETSANTAYLQISNLKNEDTATYFCVRSGNGNYDLAYFAYWGQGTLVTVSA
VL: DIVLTQSPATLSVTPGDRVSLSCRASQSISDYLHWYQQKSHESPRLLIKYASHSISGIPSRFSGSGSGSDFTLSINSVEPEDVGIYYCQHGHSFPRTFGGGTKLEIK
notes: Fab expressed in bacteria from vector M13IX104CS (human kappa and gamma 1 constant regions, terminal cysteines replaced by serine); purified Fabs carry a six-histidine tag at the C-terminus of the H chain; also called chimeric Fab; chimeric CD40
B3: anti-vWF combinatorial library clone C1 Fab (Fab, V domains shown)
VH: EVQLVESGGGLVQPGGSLRLSCAASGFSLGDYGVDWVRQAPGKGLEWVGMIWPDGSTDYNSALQSRFTISRDDSKNSLYLQMNSLKTEDTAVYYCARDPADYGNYNYALDYWGQGTTVTVS
VL: DIQMTQSPSSLSASVGDRVTITCSASQDINDYLNWYQQKPGKAPKLLIYNTSSLHSGVPSRFSGSGSGTDFTLTISSLQPEDFATYYCQQYEDLPWTFGGGTKVEIK
notes: Fab with human CL and CH1
B4: anti-vWF combinatorial library clone C4 Fab (Fab, V domains shown)
VH: B3 VH with P53G, T57V, Y59V
VL: B3 VL with N50G
notes: Fab with human CL and CH1
B5: NMC-4 antibody (parental/donor antibody) (antibody, V domains shown)
VH: VQLLESGPGLVAPSQSLSITCTVSGFSLTDYGVDWVRQPPGKGLEWLGMIWGDGSTDYNSALKSRLSITKDNSKSQVFLKMNSLQTDDTARYYCVRDPADYGNYDYALDYWGQGTSVTVS
VL: SSLSASLGDRVTISCSASQDINKYLNWYQQKPDGAVKLLIFYTSSLHSGVPSRFSGSGSGTDYSLTISNLEPEDIATYYCQQYEKLPWTFGGGTKLEVK
notes: also called parental/donor NMC-4 antibody

What was measured:
CD40-Ig fusion protein [1] = target: T1, CD40-Ig fusion protein (UniProt P25942 21-193); assay: SPR (BIAcore), CD40-Ig immobilised, purified Fab in solution
T1 construct: also called CD40-Ig antigen; CD40 receptor; not shown: Ig part, not described; in the ELISA and capture lift it is detected with goat anti-mouse IgG2b conjugate

CD40-Ig fusion protein [2] = target: T1, CD40-Ig fusion protein; assay: SPR (BIAcore), CD40-Ig immobilised
[3] = target: T2, human von Willebrand Factor (human, UniProt P04275 764-2813); assay: ELISA: human vWF captured on goat anti-human vWF coated plates, Fab dilutions, goat anti-human kappa alkaline phosphatase, O.D. 560 after 30 min
T2 construct: In the ELISA captured on plates by goat anti-human vWF; biotinylated in the plaque lift; also called vWF; human vWF

T1 sequence (P25942 21-193): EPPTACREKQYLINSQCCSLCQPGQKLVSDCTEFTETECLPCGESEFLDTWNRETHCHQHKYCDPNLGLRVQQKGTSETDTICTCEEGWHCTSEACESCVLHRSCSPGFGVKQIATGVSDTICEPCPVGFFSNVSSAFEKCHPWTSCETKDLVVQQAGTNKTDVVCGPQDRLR

| Binder | Kd (CD40-Ig fusion protein [1]) [µM] | fold lower affinity against CW43 (CD40-Ig fusion protein [2]) [fold] | EC50 (read off the curve) [3] [mg/L] |
| --- | --- | --- | --- |
| B1 | 0.0534 | 5 |  |
| B2 | 0.0483 |  |  |
| B3 |  |  | ~0.02 |
| B4 |  |  | ~0.02 |
| B5 |  |  | ~0.03 |
